Test results as given in patent US20230002466A1 (ELPIS BIOPHARMACEUTICALS, published 2023).
Changes are numbered by the printed parent chain. Names may count otherwise.

T1: human IL2Rα (human, UniProt P01589 22-213, limits assumed)
T1 construct: also called IL2α; CD25
T1 sequence (looked up): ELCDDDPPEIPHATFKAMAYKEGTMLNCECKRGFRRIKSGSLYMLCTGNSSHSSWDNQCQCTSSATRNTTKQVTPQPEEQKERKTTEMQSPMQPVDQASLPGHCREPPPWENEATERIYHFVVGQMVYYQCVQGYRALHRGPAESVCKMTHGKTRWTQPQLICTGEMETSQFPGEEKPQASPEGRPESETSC

T2: human IL2Rβ (human, UniProt P14784 27-239)
T2 construct: also called IL2β; CD122
T2 sequence (looked up): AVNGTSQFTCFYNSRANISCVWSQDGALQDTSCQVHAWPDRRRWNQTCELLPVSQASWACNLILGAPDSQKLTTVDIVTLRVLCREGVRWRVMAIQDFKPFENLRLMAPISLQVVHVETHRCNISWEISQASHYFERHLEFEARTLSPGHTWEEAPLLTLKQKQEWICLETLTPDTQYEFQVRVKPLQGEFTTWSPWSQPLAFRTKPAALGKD

B1: EP001-Fc, Bivalent (EP079) (Fc fusion)
chain: APTSSSTKKTQLQLEHLLLDLQMILNGINNYKNPKLTRMLTFKFYMPKKATELKHLQCLEEELKPLEEVLNLAQSKNFHLTARDAVDNMRVIIQELKGSETTFMCEYADETATIVEFLNRWITFCQSIISTLTEPKSCDKTHTCPLCPAPEAAGGPSVFLFPPKPKDTLMISRTPEVTCVVVDVSHEDPEVKFNWYVDGVEVHNAKTKPREEQYNSTYRVVSVLTVLHQDWLNGKEYKCKVSNKALGAPIEKTISKAKGQPREPQVYTLPPSRDELTKNQVSLTCLVKGFYPSDIAVEWESNGQPENNYKATPPVLDSDGSFFLYSKLTVDKSRWQQGNVFSCSVMHEALHNHYTQKSLSLSPGK
notes: Human IgG1 with L234A, L235A, P329G
B2: EP004-Fc, Bivalent (EP078) (Fc fusion)
chain: B1 chain with T81C, A82P, R83T, A85T, V86I, D87E, M89I, R90T, I92L
notes: as for B1
B3: EP003-Fc, Bivalent (EP082) (Fc fusion)
chain: APTSSSTKKTQLQLEHLLLDLQMILNGINNYKNPKLTRMLTFKFYMPKKATELKHLQCLEEELKPLEEVLNLAQSKNFHLGVTDSISNAIVLARELKGSETTFMCEYADETATIVEFLNRWITFCQSIISTLTEPKSCDKTHTCPLCPAPEAAGGPSVFLFPPKPKDTLMISRTPEVTCVVVDVSHEDPEVKFNWYVDGVEVHNAKTKPREEQYNSTYRVVSVLTVLHQDWLNGKEYKCKVSNKALGAPIEKTISKAKGQPREPQVYTLPPSRDELTKNQVSLTCLVKGFYPSDIAVEWESNGQPENNYKATPPVLDSDGSFFLYSKLTVDKSRWQQGNVFSCSVMHEALHNHYTQKSLSLSPGK
notes: as for B1
B4: EP083 (Fc fusion)
chain: B3 chain with R38E, G81E, V82P, T83S, S85V, A89I, I90N, A93V, R94Q
B5: EP084 (Fc fusion)
chain: B1 chain with R83E, A85V, D87T, M89I, R90T, I92L, I93V
B6: EP081 (Fc fusion)
chain: ATPTSSSTKKTQLQLEHLLLDLQMILNGINNYKNPKLTRMLTFKFYMPKKATELKHLQCLEEELKPLEEVLNLAQSKNFHLGVGDTIDNINVLVKELKGSETTFMCEYADETATIVEFLNRWITFCQSIISTLTEPKSCDKTHTCPLCPAPEAAGGPSVFLFPPKPKDTLMISRTPEVTCVVVDVSHEDPEVKFNWYVDGVEVHNAKTKPREEQYNSTYRVVSVLTVLHQDWLNGKEYKCKVSNKALGAPIEKTISKAKGQPREPQVYTLPPSRDELTKNQVSLTCLVKGFYPSDIAVEWESNGQPENNYKATPPVLDSDGSFFLYSKLTVDKSRWQQGNVFSCSVMHEALHNHYTQKSLSLSPGK
B7: EP226 (ligand)
chain: APTSSSTKKTQLQLEHLLLDLQMILNGINNYKNPKLTRMLTAKFYMPKKATELKHLQCLEEELKPLEEVLNLAQSKNFHLGVTDSISNAIVLARELKGSETTFMCEYADETATIVEFLNRWITFSQSIISTLTGSHHHHHH
B8: EP002 (ligand)
chain: APTSSSTKKTQLQLEHLLLDLQMILNGINNYKNPKLTRMLTFKFYMPKKATELKHLQCLEEELKPLEEVLNLAQSKNFHLEPSDVISNINVLVQELKGSETTFMCEYADETATIVEFLNRWITFCQSIISTLT
notes: also called E002; not shown: C-terminal Flag and 6xHis tags
B9: EP108 (ligand)
chain: B8 chain with F42H, Y45V, E81R, S83R, V85L, L92I, Q94L, C125S
B10: EP113 (ligand)
chain: B8 chain with R38Y, F42R, E81R, S83R, V85L, L92I, Q94L, C125S
B11: EP006 (ligand)
chain: B8 chain with E81G, P82V, S83G, V85T, S87D, Q94K
notes: also called EPIM-06; not shown: C-terminal Flag and 6xHis tags
B12: EP105 (ligand)
chain: B8 chain with K35E, R38I, F42P, E81R, S83R, V85L, L92I, Q94L, C125S
B13: EP005 (ligand)
chain: B8 chain with E81T, P82A, S83E, I86V, S87T, N90T
notes: not shown: C-terminal Flag and 6xHis tags
B14: EP119 (ligand)
chain: B8 chain with R38G, Y45S, E81R, S83R, V85L, L92I, Q94L, C125S
B15: EP115 (ligand)
chain: B8 chain with I28L, R38S, Y45S, E81R, S83R, V85L, L92I, Q94L, C125S
B16: EP080 (Fc fusion)
chain: B3 chain with K9E, E15K, G81K, V82W, T83G, S85A, I86V, I90R, R94G, E95A

Tests used:
[1] = biological target: T1, human IL2Rα; test: ELISA, receptor coated, anti-human Fc HRP
Protocol: (§1) For bivalent Fc-fusion proteins, human IL2Rα, and human IL2Rβ were each immobilized in a 384 well plate at final concentration of 2 μg/mL in 1×PBS in total volume of 25 μL per well. The plate was incubated overnight at 4° C. followed by blocking with 80 μL of superblock per well for 1 hour. The purified engineered IL2 mutant Fc fusion protein at 100 nM was 3-fold serial diluted 12 times. Each dilution was added to IL2Rα and IL2Rβ wells in parallel. The engineered IL2 mutant binding was detected by adding 50 μL of anti-human Fc HRP diluted at 1:5000 in 1×PBST. In between each step, the plate was washed 3 times with 1×PBST in a plate washer. The plate was then developed with 25 μl of TMB substrate for 5 mins and stopped by adding 25 μl of 2N sulfuric acid. The plate was read at OD450 nm Biotek plate reader and the EC50 was analyzed with Prism 8.1 software.

[2] = biological target: T2, human IL2Rβ; test: ELISA, receptor coated, anti-human Fc HRP
Protocol: as §1

[3] = biological target: T1, human IL2Rα; test: IL2Rα binding ELISA with E. coli culture supernatant of the clone; hFc bar as control (Example 2)
[4] = biological target: T1, human IL2Rα; test: SPR, IL2Rα captured on Protein A chip, IL2 at 100 nM
Protocol: The binding kinetics of IL2Rα-reduced binding clones to IL2Rα was assessed utilizing SPR technology with a Biacore T200, software version 2.0. For each cycle, 1 ug/mL of human IL2Rα was captured for 60 seconds at a flow rate of 10 uL/min on flow cell 2 in 1×HBSP buffer on a Protein A sensor chip. 100 nM of each HIS and Flag tag purified IL2 mutant was injected onto both the reference flow cell 1 and IL2Rα captured flow cell 2 for 150 seconds at a flow rate of 30 uL/min followed by washing for 300 seconds. The flow cells were then regenerated with Glycine pH 2.0 for 60 seconds at a flow rate of 30 uL/min. A HBSP+ buffer was included with each sample as a baseline control. The assay was set up in a 96-well format. The kinetics data was analyzed with Biacore T200 evaluation software 3.0. The specific binding response unit was derived from subtraction of binding to reference flow cell 1 from IL2Rα flow cell 2 and subtraction of buffer control. […] Relative response (RU) was determined for each IL2Rα-reduced binding clone (FIG. 4, Table 3).

[5] = biological target: T1, human IL2Rα; test: SPR, receptor captured on Protein A chip, E. coli-produced IL2
Protocol: (§2) The assay was run with Biacore T200 control software version 2.0. For each cycle, 1 μg/mL of human IL2Rβ or IL2Rα was captured for 60 seconds at flow rate of 10 μL/min on flow cell 2 in 1×HBST buffer on Protein A sensor chip. Two-fold serial diluted HIS tag purified engineered IL2 mutant was injected onto both reference flow cell 1 and IL2Rβ or IL2Rα captured flow cell 2 for 150 seconds at flow rate of 30 μL/min followed by washing for 300 seconds. The flow cells were then regenerated with Glycine pH 2 for 40 seconds at a flow rate of 30 μL/mins. Eight concentration points from 0 to 100 nM were assayed for each IL2Rβ agonist clone 96-well plate format. The kinetics data was analyzed with Biacore T200 evaluation software 3000. The specific binding response unit was derived from subtraction of binding to reference flow cell 1 from target flow cell 2.

[6] = biological target: T2, human IL2Rβ; test: as above
Protocol: as §2

Binder | EC50 [1] | relative activity IL2Rα (EC50: fold) against EP085 [1] | EC50 [2] | relative activity IL2Rβ (EC50: fold) against EP085 [2] | binding result [3] | RU (at 100 nM) [4] | Relevant binding to WT IL2 (%) [4] | other results
B1 | 0.64 nM | -12.7 fold | 0.41 nM | 727 fold |  |  |  | 
B2 | 0.041 nM | 1.24 fold | 2.1 nM | 142 fold |  |  |  | 
B3 | 0.028 nM | 1.78 fold | 0.25 nM | 1190 fold |  |  |  | 
B4 | 0.046 nM | 1.09 fold | 0.28 nM | 1080 fold |  |  |  | 
B5 | 0.041 nM | 1.23 fold | 2.6 nM | 117 fold |  |  |  | 
B6 | 0.087 nM | -1.73 fold | 0.2 nM | 1530 fold |  |  |  | 
B7 |  |  |  |  | no binding (tested: supernatant, concentration not given) | 3 RU | 2.11% | 
B8 |  |  |  |  |  |  |  | Kd [5]: 101 nM; relative activity IL2Rα (KD: fold) against WT IL2 [5]: -10.6 fold; Kd [6]: 2.37 nM; koff [6]: 0.00273 s⁻¹; kon [6]: 1.15e+06 M⁻¹ s⁻¹; relative activity IL2Rβ (KD: fold) against WT IL2 [6]: 1830 fold
B9 |  |  |  |  | no binding (tested: supernatant, concentration not given) | 2.4 RU | 1.69% | 
B10 |  |  |  |  | no binding (tested: supernatant, concentration not given) | 2.6 RU | 1.83% | 
B11 |  |  |  |  |  |  |  | Kd [5]: 481 nM; relative activity IL2Rα (KD: fold) against WT IL2 [5]: -50.6 fold; Kd [6]: 3.1 nM; koff [6]: 0.00254 s⁻¹; kon [6]: 819000 M⁻¹ s⁻¹; relative activity IL2Rβ (KD: fold) against WT IL2 [6]: 1400 fold
B12 |  |  |  |  | no binding (tested: supernatant, concentration not given) | 2.1 RU | 1.48% | 
B13 |  |  |  |  |  |  |  | Kd [5]: 12.6 nM; relative activity IL2Rα (KD: fold) against WT IL2 [5]: -1.3 fold; Kd [6]: 0.885 nM; koff [6]: 0.0054 s⁻¹; kon [6]: 6.1e+06 M⁻¹ s⁻¹; relative activity IL2Rβ (KD: fold) against WT IL2 [6]: 4910 fold
B14 |  |  |  |  | no binding (tested: supernatant, concentration not given) | 2.7 RU | 1.9% | 
B15 |  |  |  |  | no binding (tested: supernatant, concentration not given) | 2.4 RU | 1.69% | 
B16 | 0.056 nM | -1.17 fold | 0.23 nM | 1280 fold |  |  |  | 
